Target: purified hGM-CSF (Biomol #2514, expressed in E. coli) (human) (UniProt P04141)
Test: cell-based or functional assay

Sequence of purified hGM-CSF (Biomol #2514, expressed in E. coli) (human) (P04141 18-144 limits assumed): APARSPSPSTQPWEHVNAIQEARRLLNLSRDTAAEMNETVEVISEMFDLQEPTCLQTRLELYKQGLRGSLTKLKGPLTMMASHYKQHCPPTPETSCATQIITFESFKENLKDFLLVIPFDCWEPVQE

With “rat-anti-human-GM-CSF IgG2a BVD2-21C11 (BD #554503) (antibody)” the TF-1 assay hGM-CSF (E. coli) [pM], GM-CSF final concentration 1.0 ng/ml was 8260 pM.
